These results are taken from US20040001835A1, “Prevention or treatment of cancer using integrin alphavbeta3 antagonists in combination with other agents” (MedImmune, Inc., priority 2002, published 2004).

Experiment [1] deals with T1, human β3 Mutant B (L173I E174K) (Homo sapiens, UniProt P05106, E200K/L199I).
T1 construct: expressed in transfected cells; host or cells: HEK293
As to the kind of experiment: FACS analysis of HEK293 transfectants, human β3 containing rat residues. The class given is binding. As to conditions: flow cytometry. An excerpt: (§1) FIG. 4. Binding of Integrin αvβ3 specific antibodies to human β3 containing rat residues.
(§2) Sequence comparison of residues 164 to 202 of β3 integrins from different species and design of mutations. To further characterize the binding epitope of Vitaxin®, the gene encoding β3 was cloned and sequenced from hamster cDNA. The amino acids in the region previously proposed to contain the LM609 binding epitope are shown above (dashed lines depict conserved residues). To determine which residues in the human sequence were essential for antibody binding, the amino acids shown in color were mutated to the corresponding rat residues. The resulting genes were transfected to HEK293 cells which express endogenous human αv. Resulting cell lines were analyzed by flow cytometry for antibody binding.
(§3) This protocol is used to assess the surface expression of integrins in HEK-293 cells transfected with various Integrin subunits. Primary antibodies bound to the integrins are detected by fluorochrome-conjugated secondary antibodies and analyzed by flow cytometry.
(§4) 1. Wash adherent cells twice with 5 ml of PBS.
(§5) 2. Add 1.5 ml of trypsin solution or cell dissociation solution, incubate at 37_C. foir 2 min.
(§6) 3. Add 3 ml of culture medium or FACs buffer to the plate and loosen cells from the plate by pipetting. Count cells. Resuspend cells in FACs buffer at 5×10^6 per ml.
(§7) 4. Transfer an aliquot of 5×10^5 cells (100 μl) into microfuge tubes containing 10 μg mouse IgG or human IgG. Incubate cells for 20 min at RT to block IgG receptor sites. Note: use mouse IgG for blocking when using human primary mAb; use human IgG for blocking when using mouse primary mAb.
(§8) 5. Add […] of Vitaxin®, or other primary mAb, and incubate for 20 min at RT.
(§9) 6. Wash twice with 500 μl of FACS buffer, spinning cells at 1500 rpm for 5 minutes.
(§10) 7. Add 0.5 mg of goat anti-human IgG Alexa 488, or other secondary antibodies, and incubate for 20 min at RT.
(§11) 8. Wash twice with 500 μl FACS buffer, spinning cells at 1500 rpm for 5 minutes.
(§12) 9. Resuspend in 500 μl buffer for FACS analysis.
(§13) 10. Use unstained cells for background. For negative control, use secondary antibody alone.

Experiment [2] addresses T2, human β3 Mutant ABC (E171Q L173I E174K D179T T182S) (Homo sapiens, UniProt P05106, D205T/E197Q/E200K/L199I/T208S).
T2 construct: expressed in transfected cells; host or cells: HEK293
Described as above. The experiment is classed as binding. Particulars: flow cytometry.
From the text: as §1, §2, §3, §4, §5, §6, §7, §8, §9, §10, §11, §12, §13
For orientation: A flow cytometer gives signals particle by particle.

Experiment [3] concerns the target T3, human β3 Mutant A (E171Q) (Homo sapiens, UniProt P05106, E197Q).
T3 construct: expressed in transfected cells; host or cells: HEK293
The experiment is described as above. The experiment is classed as binding. Particulars: flow cytometry.
From the text: as §1, §2, §3, §4, §5, §6, §7, §8, §9, §10, §11, §12, §13

In experiment [4] the target is T4, human β3 complexed to endogenous mouse αv (Homo sapiens, UniProt P05106).
T4 construct: expressed in transfected cells; host or cells: B16F10 mouse melanoma
T4 sequence (P05106 27-788): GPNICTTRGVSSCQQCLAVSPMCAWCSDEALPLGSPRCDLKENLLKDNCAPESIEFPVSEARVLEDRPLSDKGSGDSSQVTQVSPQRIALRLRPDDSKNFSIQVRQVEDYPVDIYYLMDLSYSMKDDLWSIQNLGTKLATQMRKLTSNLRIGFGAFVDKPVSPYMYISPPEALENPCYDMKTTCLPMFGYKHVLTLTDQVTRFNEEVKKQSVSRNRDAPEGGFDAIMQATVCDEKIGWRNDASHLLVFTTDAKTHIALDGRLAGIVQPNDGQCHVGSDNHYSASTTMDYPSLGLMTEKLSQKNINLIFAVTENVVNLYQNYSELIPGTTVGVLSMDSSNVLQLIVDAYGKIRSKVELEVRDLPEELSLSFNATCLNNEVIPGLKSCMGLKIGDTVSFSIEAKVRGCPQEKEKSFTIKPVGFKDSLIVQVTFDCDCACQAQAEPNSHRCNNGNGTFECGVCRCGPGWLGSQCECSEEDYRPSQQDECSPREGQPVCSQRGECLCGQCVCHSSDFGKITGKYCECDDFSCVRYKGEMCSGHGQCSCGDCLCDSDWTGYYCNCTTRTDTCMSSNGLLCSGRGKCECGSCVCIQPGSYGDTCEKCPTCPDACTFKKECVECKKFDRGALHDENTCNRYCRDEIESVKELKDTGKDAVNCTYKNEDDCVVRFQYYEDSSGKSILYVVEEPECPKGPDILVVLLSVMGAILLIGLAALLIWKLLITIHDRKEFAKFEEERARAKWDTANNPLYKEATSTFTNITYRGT
T4 sequence (P43406 31-885 partner limits assumed): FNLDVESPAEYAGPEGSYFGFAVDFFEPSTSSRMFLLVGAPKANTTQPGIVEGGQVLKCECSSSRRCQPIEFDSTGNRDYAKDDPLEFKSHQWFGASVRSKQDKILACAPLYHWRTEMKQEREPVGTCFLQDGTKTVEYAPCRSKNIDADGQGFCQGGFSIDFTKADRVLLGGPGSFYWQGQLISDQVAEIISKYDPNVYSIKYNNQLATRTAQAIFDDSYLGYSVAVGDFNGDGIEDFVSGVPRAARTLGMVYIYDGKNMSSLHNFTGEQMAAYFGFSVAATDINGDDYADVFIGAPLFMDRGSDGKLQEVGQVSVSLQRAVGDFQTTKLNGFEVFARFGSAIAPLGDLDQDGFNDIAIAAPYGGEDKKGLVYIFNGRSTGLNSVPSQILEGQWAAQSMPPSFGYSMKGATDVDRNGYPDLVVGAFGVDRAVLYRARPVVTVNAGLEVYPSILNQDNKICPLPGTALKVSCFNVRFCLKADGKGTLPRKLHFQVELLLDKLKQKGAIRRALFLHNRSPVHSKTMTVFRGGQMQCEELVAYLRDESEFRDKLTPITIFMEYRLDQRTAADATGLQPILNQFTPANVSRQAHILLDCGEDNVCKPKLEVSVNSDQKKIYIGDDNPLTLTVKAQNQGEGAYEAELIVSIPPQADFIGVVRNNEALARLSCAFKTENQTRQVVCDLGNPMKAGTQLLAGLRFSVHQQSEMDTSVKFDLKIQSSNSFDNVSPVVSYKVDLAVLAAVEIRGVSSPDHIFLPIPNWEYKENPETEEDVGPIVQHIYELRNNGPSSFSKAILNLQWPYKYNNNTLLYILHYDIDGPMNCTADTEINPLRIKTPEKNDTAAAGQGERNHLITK
T4 sequence (P43406 887-1044 partner limits assumed): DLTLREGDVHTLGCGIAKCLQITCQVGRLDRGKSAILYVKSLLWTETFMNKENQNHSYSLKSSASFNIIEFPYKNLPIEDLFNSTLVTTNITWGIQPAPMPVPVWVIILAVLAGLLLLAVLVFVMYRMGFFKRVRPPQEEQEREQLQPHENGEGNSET
The experiment in a line: Flow cytometric analysis of binding to human β3 transfected B16F10 cells. As to conditions: mouse melanoma B16F10, human β3 with endogenous mouse αv, FACS, FIG. 3. As for the experimental part:
FIG. 3. Flow cytometric analysis of binding of Vitaxin® to human β3 transfected B16F10 cells. In order to determine the binding specificity of Vitaxin® for αvβ3, the mouse melanoma line B16F10 was transfected with an expression vector encoding the human β3 gene. Cells were analyzed by FACS for expression of β3 expressed with the endogenous mouse αv.

“Also recorded” adds a separate entry of the source.

T2 sequence (P05106 27-788 E197Q/L199I/E200K/D205T/T208S): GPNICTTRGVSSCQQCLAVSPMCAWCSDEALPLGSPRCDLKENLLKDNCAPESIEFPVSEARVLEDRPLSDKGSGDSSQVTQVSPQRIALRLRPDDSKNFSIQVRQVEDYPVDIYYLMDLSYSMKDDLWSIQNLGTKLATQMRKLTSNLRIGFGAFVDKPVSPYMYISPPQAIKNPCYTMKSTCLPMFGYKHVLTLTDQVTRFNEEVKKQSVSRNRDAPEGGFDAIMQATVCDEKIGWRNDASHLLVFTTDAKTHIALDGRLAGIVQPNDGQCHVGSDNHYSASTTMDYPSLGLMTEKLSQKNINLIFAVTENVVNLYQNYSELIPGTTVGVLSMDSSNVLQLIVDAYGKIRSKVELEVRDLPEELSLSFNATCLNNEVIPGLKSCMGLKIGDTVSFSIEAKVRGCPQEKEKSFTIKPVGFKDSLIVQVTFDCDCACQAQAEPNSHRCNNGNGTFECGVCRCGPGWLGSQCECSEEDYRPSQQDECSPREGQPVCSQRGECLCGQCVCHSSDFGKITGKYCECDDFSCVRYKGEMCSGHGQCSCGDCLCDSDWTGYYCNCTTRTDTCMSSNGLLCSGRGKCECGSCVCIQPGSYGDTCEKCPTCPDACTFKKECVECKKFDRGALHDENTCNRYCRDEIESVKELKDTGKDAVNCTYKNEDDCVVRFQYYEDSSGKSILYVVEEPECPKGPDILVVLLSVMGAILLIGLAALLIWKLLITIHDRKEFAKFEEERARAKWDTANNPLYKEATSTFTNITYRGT
T2 sequence (P06756 31-889 partner limits assumed): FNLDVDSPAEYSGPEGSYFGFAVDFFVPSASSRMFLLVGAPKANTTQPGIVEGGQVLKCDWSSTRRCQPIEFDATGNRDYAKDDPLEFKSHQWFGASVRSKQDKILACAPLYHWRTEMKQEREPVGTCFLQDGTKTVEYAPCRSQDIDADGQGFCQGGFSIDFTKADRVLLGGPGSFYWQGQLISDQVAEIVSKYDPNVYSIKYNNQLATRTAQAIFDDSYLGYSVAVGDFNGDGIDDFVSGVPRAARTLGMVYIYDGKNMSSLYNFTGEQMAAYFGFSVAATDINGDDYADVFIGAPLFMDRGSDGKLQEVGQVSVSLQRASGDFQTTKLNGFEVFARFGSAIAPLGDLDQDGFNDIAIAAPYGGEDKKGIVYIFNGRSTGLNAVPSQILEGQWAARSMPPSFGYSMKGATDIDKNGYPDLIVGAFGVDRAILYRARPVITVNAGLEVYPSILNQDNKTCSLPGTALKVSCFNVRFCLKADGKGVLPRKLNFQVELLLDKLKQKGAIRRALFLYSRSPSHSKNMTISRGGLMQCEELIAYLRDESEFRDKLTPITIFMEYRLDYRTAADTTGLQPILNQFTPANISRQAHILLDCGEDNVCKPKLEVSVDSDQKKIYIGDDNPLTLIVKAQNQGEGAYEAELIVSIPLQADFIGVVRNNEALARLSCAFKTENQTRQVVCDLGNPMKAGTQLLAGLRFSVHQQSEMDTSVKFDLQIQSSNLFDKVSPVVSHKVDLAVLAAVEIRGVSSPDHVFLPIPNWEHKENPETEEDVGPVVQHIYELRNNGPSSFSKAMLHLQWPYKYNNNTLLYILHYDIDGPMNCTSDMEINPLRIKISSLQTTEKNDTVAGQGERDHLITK
T2 sequence (P06756 891-1048 partner limits assumed): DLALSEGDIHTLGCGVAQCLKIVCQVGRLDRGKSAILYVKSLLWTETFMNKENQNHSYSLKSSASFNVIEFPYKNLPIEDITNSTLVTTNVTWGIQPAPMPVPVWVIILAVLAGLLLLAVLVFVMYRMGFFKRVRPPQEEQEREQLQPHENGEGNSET
T1 sequence (P05106 27-788 L199I/E200K): as the sequence (P05106 27-788 E197Q/L199I/E200K/D205T/T208S) above, with Q171E, T179D, S182T counted along it
T1 sequence (P06756 31-889 partner limits assumed): as the sequence (P06756 31-889 partner limits assumed) above
T1 sequence (P06756 891-1048 partner limits assumed): as the sequence (P06756 891-1048 partner limits assumed) above
T3 sequence (P05106 27-788 E197Q): as the sequence (P05106 27-788 E197Q/L199I/E200K/D205T/T208S) above, with I173L, K174E, T179D, S182T counted along it
T3 sequence (P06756 31-889 partner limits assumed): as the sequence (P06756 31-889 partner limits assumed) above
T3 sequence (P06756 891-1048 partner limits assumed): as the sequence (P06756 891-1048 partner limits assumed) above

B1: Vitaxin®: humanized blocking monoclonal antibody that binds Integrin αVβ3 (MEDI-522, MedImmune); humanized and optimized version of LM609 (antibody, chains of the INN, looked up, V domains shown)
VH: QVQLVESGGGVVQPGRSLRLSCAASGFTFSSYDMSWVRQAPGKGLEWVAKVSSGGGSTYYLDTVQGRFTISRDNSKNTLYLQMNSLRAEDTAVYYCARHLHGSFASWGQGTTVTVSS
VL: EIVLTQSPATLSLSPGERATLSCQASQSISNFLHWYQQRPGQAPRLLIRYRSQSISGIPARFSGSGSGTDFTLTISSLEPEDFAVYYCQQSGSWPLTFGGGTKVEIK
As to B1, the “effect of Mutation B (Leu, Glu to Ile, Lys at positions 173 and 174) on antibody binding” value in experiment [1] was “disrupt binding”. The “effect of changing all three regions (A, B and C) to rat residues on antibody binding” value in experiment [2] is “disrupt binding; also recorded: completely eliminate binding”. For the same molecule, the “effect of Mutation A (Glu to Gln at position 171) on antibody binding” value in experiment [3] is given as “disrupts binding”. Besides, the “binding to human β3 transfected B16F10 cells” value in experiment [4] was “bound; also recorded: recognized the transfected cells”.
